Laboratory results reported in the RNAGym collection of RNA variant scans (doi:10.1073/pnas.2313332121).
Fewer inactive variants are shown than the library holds.

B1: TPR 5TU (parent)
chain: GGAUCUUCUCGAUCUAACAAAAAAGACAAAUCUGCCACAAAGCUUGAGAGCAUCUUCGGAUGCAGAGGCGGCAGCCUUCGGUGGCGCGAUAGCGCCAACGUUCUCAACUAUGACACGCAAAACGCGUGCUCCGUUGAAUGGAGUUUAUCAUG

Variants of: B1
Experiment: polymerase ribozyme fitness, log enrichment relative to wild type (log ratio); higher = more active; in vitro selection for triplet polymerase activity
Procedure, shortened: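 For each subunit of a heterodimeric triplet polymerase ribozyme, a mutant library was built by PCR and transcribed, then taken through a single in vitro selection round in triplicate. Selection involved annealing to a biotinylated primer, the partner subunit and triplets, incubation frozen at −7 °C, gel excision of extended constructs, capture on streptavidin beads and RT-PCR. Genotypes were retained after Illumina sequencing of inputs and outputs only with ≥10 input reads and ≥1 read in each output. Fitness is defined as the logarithm of a genotype's enrichment relative to wild-type enrichment, using inverse-variance-weighted averages across replicates, with the logarithm taken to base 2.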

Variant	polymerase ribozyme fitness (log ratio)
GGAUCUUCUCGAUCUAACAAAAAAGACAAAUCUGCCACAAAGCUUCCGAGCAUCUUCGGAUGCAGAGGCGGUAGCCUUCGGUGGCGCGAUAGCGCCAACGUUAUCAACUAUGACACGCAAAACGCGUGCUCCGUUGAAUGGAGUUUAUCAUG [G46C A47C C72U C103A]	≤ -4.2
GGAUCUUCUCGAUCUAACAAAAAAGACAAAUCUGCCACAAAGCUUCAGAGCAUCUUCGGAUGCAGAGGCGGCAGCCUUCGGUGGCGCGAUAGCGCCAUCGUUCUCAACUAUGACACGCAAAACGCGUGCUCCGUUGAAUGGAGUUUAUCAUG [G46C A98U]	-1.22
GGAUCUUCUCGAUCUAACAAAAAAGACAAAUCUGCCACAAAGCUUCAGAGCAUCUUCGGAUGCAGAGGCGGCAGCCUUCGGUGGUGCGAUAGCGCCAACGUUCUCAACUAUGACACGCAAAACGCGUGCUCCGUUGAAUGGAGUUUAUCAUG [G46C C85U]	-1.16
GGAUCUUCUCGAUCUAACAAAAAAGACAAAUCUGCCACAAAGCUUCAGAGCAUCAUCGGAUGCAGAGGCGGCAGCCUUCGGUGGCGCGUUAGGGCCAACGUUCUCCACUAUGACACGCAAAACGCGCGCUCCGUUGAAUCGAGUUUAUCAUG [G46C U55A A89U C93G A106C U127C G140C]	≤ -4.2
GGAUCUUCUCGAUCUAACAAAAAAGACAAAUCUGCCACAAAGCUUCAGAGCAUCUUCGGAUGCAGAGACGGCAGCCUUCGGUGGCGCGAUAGCGCCAACGUUCUCAACUAUGACACGCAAAACGCGUGCUCCGUUGAAUGGAGUUUAUCAUG [G46C G68A]	-4.14
GGAUCUUCUCGAUCUAACAAAAAAGACAAAUCUGCCACAAAGCUUCAGAGCAUCUUCGGAUGCAGAGGCGGCAGCCUUCGGUGGCGAGAUAGCCCCAACGAUCUCAACUAUGACACGCAAAACGCGUGCUCCGAUGAAUGUAGUUUAUCAUG [G46C C87A G94C U101A U134A G141U]	≤ -4.2
GGAUCUUCUCGAUCUAACAAAAAAGACAAAUCUGCCACAAAGCUUUAGAGCAUCUUCGGAUGCAGAGGCGGCAGCCUUCGGUGGCGCGAUAGCGCCAACGUUCUCAACUAUGACACGCAAAACGCGUGCUCCGUUGAAUGGAGUUUAUCAUG [G46U]	-0.0995
GGAUCUUCUCGAUCUAACAAAAAAGACAAAUCUGCCACAAAGCUUCAGAGCAUCUUCGGAUGCAGAGGCGGCAGCCUUCGGUGGCGCGAUAGCGCCAACGUUCUCAACUAUGACACGCAAAACGCGUGCUCCGUUGAAUGGAGUUUAUCAUG [G46C]	-0.9
GGAUCUUCUCGAUCUAACAAAAAAGACAAAUCUGCCACAAAGCUUCAGAGCAUAUUCGGAUGCAGAGGCGGCAGCCUUCGGUGGCGCGAUAGCGCGAACGUUGUCAACUAUGACACGCAAAACGCGUGCUCCGUUGAAUGUAGUUUAUCAUG [G46C C54A C96G C103G G141U]	≤ -4.2
GGAUCUUCUCGAUCUAACAAAAAAGACAAAUCUGCCACAAAGCUUCAGAGCAUCUUCGGAUGCAGAGGCGGCAGUCUUCGGUGGCGCGAUAGGGCCAACGUUCUCAACUAUGACACGCAAAACGCGUGCUCCGUUGAAUGGAGAUUAUCAUG [G46C C75U C93G U144A]	≤ -4.2
GGAUCUUCUCGAUCUAACAAAAAAGACAAAUCUGCCACAAAGCUUCAGAGCAUCGUCGGAUGCAGAGGCGGCAGCCUUCGGUGGCGCGAUAGCGCCAACGUUCUCAACUAUGACACGCAAAACGCGUGCUCCGUUGAAUGGAGAUUAUCAUG [G46C U55G U144A]	-1.97
GGAUCUUCUCGAUCUAACAAAAAAGACAAAUCUGCCACAAAGCUUUAGAGCAUCUUCGGAUGCAGAGGCGGCAGCCUUCGGUGGCGCGAUAGCGCCAACGUUCUCAACUAUGACACGCAAAACGCGUGCUCCGUUGACUGGAGUUUAUCAUG [G46U A138C]	-3.8
GGAUCUUCUCGAUCUAACAAAAAAGACAAAUCUGCCACAAAGCUUCAGAGCAUCUUCGGUUGCAGAGGCGGCAGCCUUCGGUGGCGCGAUAGCGCCAACGUUCUCAACUAUGACACGCAAAACGCGUGCUCCGUUGAAUGGAGUUUAUCAUG [G46C A60U]	-1.74
GGAUCUUCUCGAUCUAACAAAAAAGACAAAUCUGCCACAAAGCUUCAGAUCAUCUUCGGAUGCAGAGGCGGCAGCCUUCGGUGUCGCGAUAGCGCCAACGUUCUCAACUAUGACACGCAACACUCGUGCUCCGUUGAAUGGAGUUUAUCAUG [G46C G50U G84U A121C G124U]	-3.31
GGAUCUUCUCGAUCUAACAAAAAAGACAAAUCUGCCACAAAGCUUUAGAGCAUCUUCGGAUGCAGAGGCGGUAGCCUUCGGUGGCGUGAUAGCGCCAACGUUCUCAACUAUGACACGCAAAACGCGUGCUCCGUUGAAUGGAGUUUAUCAUG [G46U C72U C87U]	-1.01
GGAUCUUCUCGAUCUAACAAAAAAGACAAAUCUGCCACAAAGCUUCAGAGCAUCUUCGAAUGCAGGGGCGGCAGCCUUCGGUAGCGCGAUAGCGCCAACGUUCUCAACUAUGACACGCAUAAGGCGUGCUCCGUUGAAUGGAGUUUAUCAUG [G46C G59A A66G G83A A120U C123G]	≤ -4.2
GGAUCUUCUCGAUCUAACAAAAAAGACAAAUCUGCCACAAAGCUUCAGAGCAUCUUCGGAUGCAGAGGCGGCAGCCUUCCGUGGCGCGAUAGCGCCCACGUUCUCAACUAUGACACGCAAAACGCGUGCUCCGUUGAAUGGAGGUUAUCAUG [G46C G80C A97C U144G]	≤ -4.2
GGAUCUUCUCGAUCUAACAAAAAAGACAAAUCUGCCACAAAGCUUUAGAGCAUCGUCGGAUGCAGAGGCGGCAGCAUUCGGUGGCGCGGUAGCGCCAACGUUCUCUACUAUGACACGCAAAACGCGUGCUCCGUUGAAUGGAGUUUAUCAUG [G46U U55G C76A A89G A106U]	≤ -4.2
GGAUCUUCUCGAUCUAACAAAAAAGACAAAUCUGCCACAAAGCUUAAGAGCAUCUUCGGAUGCAGAGGCGGCAGCCUUCGGUGGCGCGAUAGCGCCAACGUUCUCAACUAUGACACGCAAAACGCGUGCUCCGUUGAAUGGAGGUUAUCAUG [G46A U144G]	0.469

Variant	polymerase ribozyme fitness (log ratio)
GGAUCUUCUCGAUCUAACAAAAAAGACAAAUCUGCCACAAAGCUUUAGAGCAUCUUCGGAUGCAGAGGCGGCAGCCUUCGGUGGCGCGAUAGCGCUAACGUUCUCAACUAUGACACGCAAAACGCGUGCUCCGUUGAAUGGGGUUUAUCAUG [G46U C96U A142G]	-1.19
GGAUCUUCUCGAUCUAACAAAAAAGACAAAUCUGCCACAAAGCUUCAGAGCAUUUUCGGAUGCAGAGGCGGCAGCCUUCGGUGGCGCGAUAGCGCCAACGUUCUCAACUAUGACACGCAAAACGCGUGCUCCGUUGAAUGGAGUUUAUCAUG [G46C C54U]	-0.821
GGAUCUUCUCGAUCUAACAAAAAAGACAAAUCUGCCACAAAGCUUUAGAGCAUCUUCGGAUGCAGAGCCGGCAGCCUACGGUGGCGCGAUAGGGCCAAUCUUCUCAACUAUGACACGAUAAACGCGUGCUCCGUUGAAUGGAGGUUAUCAUA [G46U G68C U78A C93G C99U G100C C118A A119U U144G G152A]	≤ -4.2
GGAUCUUCUCGAUCUAACAAAAAAGACAAAUCUGCCACAAAGCUUUAGAGCAACUUCGGAUGCAGAGGCGGCAGCCUUCGGUGGCGCGACAGCGCCAACGUUCUCAACUAUGACACGCAAAACGCGUGCUCCGUUGAAUGGAGUUUAUCAUG [G46U U53A U90C]	≤ -4.2
GGAUCUUCUCGAUCUAACAAAAAAGACAAAUCUGCCACAAAGCUUCUGAGCAACUUCGGAUGCAGAGGCGGCAGCCUUCGGUGGUGCGAUAGCGCCAACGUUCUCAACUAUGACACGCAAAACGCGUGCCCCGUUGAAUGGAGUUUAUCGUG [G46C A47U U53A C85U U130C A150G]	≤ -4.2
GGAUCUUCUCGAUCUAACAAAAAAGACAAAUCUGCCACAAAGCUUUAGAGCAUCUUCGGAUGCAGAGGCGGCAGCCUUCGGUCGCGCGAUAUCGCCAACGUUCUCAACUAUGACACGCAAAACGCGUGCUCCGUUGAAUGGAGUUUAUCAUG [G46U G83C G92U]	-2.34
GGAUCUUCUCGAUCUAACAAAAAAGACAAAUCUGCCACAAAGCUUCAGAGCAUCUUCGGAUGCAGAGGAGGCAGCCUUCGAUGGCGCGAUAGCGCCAACGUUCUCAACUAUGACACGCAAAACGCGUGCUCCGUUGAAUGGAGUUUAUCAUG [G46C C69A G81A]	-1.82
GGAUCUUCUCGAUCUAACAAAAAAGACAAAUCUGCCACAAAGCUUCAGAGCAUCUUCGGAUGCAGAGGCGGCAGCCUUCGGUGGGGCAAUAGCGCCAACGUUCUCAACUAUGACACGUAAAACGCGUGCUCCGUUGAAUGGAGGUUAUCAUG [G46C C85G G88A C118U U144G]	≤ -4.2
GGAUCUUCUCGAUCUAACAAAAAAGACAAAUCUGCCACAAAGCUUCAAAGCAUCUUCGGAUGCAGAGGCGGCAGCGUGCGGUAGCGCGAUAGCGCCAACGUUCUCAACUAUGACACGCAAAACGCGUGCUCCGUUGAAUGGACUUUAUCAUG [G46C G48A C76G U78G G83A G143C]	-4.2
GGAUCUUCUCGAUCUAACAAAAAAGACAAAUCUGCCACAAAGCUUCAGAGCAUCUUCGGAUGCAGAGGCGGCAGCCUUCGGUCGCGCCAUAGCGCCGACGUUCUCAACUAUGACACGCAAAACGCGUGCUCCGUUGAAUGGAGUUUAUCAUG [G46C G83C G88C A97G]	≤ -4.2
GGAUCUUCUCGAUCUAACAAAAAAGACAAAUCUGCCACAAAGCUUCAGAGCAUCUUCGGAUGCAGAGGCGGCAGCCUUCGGUGGCGCGAUAGCGCCAACGUUCUCAACUAUGACACGGAAAACGCGUGCUCCGUUGAAUGGAGUUUAUCAUG [G46C C118G]	-1.24
GGAUCUUCUCGAUCUAACAAAAAAGACAAAUCUGCCACAAAGCUUCAGAGCAUCUUCGGAUGCAGAGGCGGCAGCCUUCGGUGGCGCGAUGGCGCCAACGUUCUCAACUAUGACACGCAAAACGCGUGCUCCGUUGAAUGGAGUUUAUCAUG [G46C A91G]	-3.27
GGAUCUUCUCGAUCUAACAAAAAAGACAAAUCUGCCACAAAGCUUCAGAGCAUCAUCGGAUGCAGAGGCGGCAGCCUUCGGUGGCGCGAUAGCGCCAACGUUCUCAACUAUGACACGCAAAACGCGUGCUCCGUUGAAUGGAGUUUAUCAUG [G46C U55A]	-0.931
GGAUCUUCUCGAUCUAACAAAAAAGACAAAUCUGCCACAAAGCUUUAGACCAUCUUCGGAUGCAGAGGCGGCGGCGUUCGGUGGCGCGAUAGCGCCAACGUUCUCAACUAUGUCACGCAAAACGCGUGCUCCGUUGAACGGAGUUUAUCAUG [G46U G50C A73G C76G A113U U139C]	≤ -4.2
GGAUCUUCUCGAUCUAACAAAAAAGACAAAUCUGCCACAAAGCUUCCAAGCAUCUUCGGAUGCAGAGGCGGCAGCCUUCGGCGGCGCGAUAGCGCCAACGUUCUCAACUAUGACACGCAAAACGCGUGCUCCGUUGAAUGGAGUUUAUCAUG [G46C A47C G48A U82C]	≤ -4.2
GGAUCUUCUCGAUCUAACAAAAAAGACAAAUCUGCCACAAAGCUUUAGAGCAUCAUCGGAUGCAGAGGCGGCAGCCUUCGGUGUCGCGAUAGCGCCAACGUUCUCAACUAUGACACGCAAAACGCCUGCUCCGUUGAAUGGAGUUUAUCAUG [G46U U55A G84U G126C]	-1.83
GGAUCUUCUCGAUCUAACAAAAAAGACAAAUCUGCCACAAAGCUUUAGAGCAUCUUCGGAUGGAGAGGCGGCAGCCUUCGGUGGCGCGAUAGCUCCAACGGUCUCAACUAUGACACGCAAAACGCGUGCUCCGUUGGAUGGAGUUUCUCAUG [G46U C63G G94U U101G A137G A147C]	≤ -4.2
GGAUCUUCUCGAUCUAACAAAAAAGACAAAUCUGCCACAAAGCUUAAGAGCAUCUACGGAUGCAGAGGCGGCAGCCUUCGGUUGCGCGAUAGCGCCAACGUUCUCAACUAUGACACGCAAAACGCGUGCUCCGUUGAAUGGAGUUUAUCAUG [G46A U56A G83U]	-2.27
GGAUCUUCUCGAUCUAACAAAAAAGACAAAUCUGCCACAAAGCUUUAGAGCAUCUUCGGAUGCAGAGGCGGCAGCCUUCGGUGGCGUGAUAGCGCCAACGUUCUCAACUAUGACACGCAAAACGCGUGCUCCGUUGAAUGGAGUUUAUCAUG [G46U C87U]	-0.944
